# Reference: PMC11188183
# Legend:
# [1] = target: kinesin family member C1 (KIFC1) (human) (UniProt Q9BW19)
# [2] = target: kinesin family member C1 (KIFC1) (human) (UniProt Q9BW19); assay: affinity purification with mass spectrometry; anti-KIFC1 antibody (Abcam ab172620) crosslinked to magnetic beads; nuclear lysate of HCC1806 (AA) cells; LC-MS/MS of the eluate
# [3] = target: kinesin family member C1 (KIFC1) (human) (UniProt Q9BW19); assay: affinity purification with mass spectrometry; anti-KIFC1 antibody (Abcam ab172620) crosslinked to magnetic beads; nuclear lysate of MDA-MB-468 (AA) cells; LC-MS/MS of the eluate
# Chain of UniProt Q9BW19 (Q9BW19 whole entry): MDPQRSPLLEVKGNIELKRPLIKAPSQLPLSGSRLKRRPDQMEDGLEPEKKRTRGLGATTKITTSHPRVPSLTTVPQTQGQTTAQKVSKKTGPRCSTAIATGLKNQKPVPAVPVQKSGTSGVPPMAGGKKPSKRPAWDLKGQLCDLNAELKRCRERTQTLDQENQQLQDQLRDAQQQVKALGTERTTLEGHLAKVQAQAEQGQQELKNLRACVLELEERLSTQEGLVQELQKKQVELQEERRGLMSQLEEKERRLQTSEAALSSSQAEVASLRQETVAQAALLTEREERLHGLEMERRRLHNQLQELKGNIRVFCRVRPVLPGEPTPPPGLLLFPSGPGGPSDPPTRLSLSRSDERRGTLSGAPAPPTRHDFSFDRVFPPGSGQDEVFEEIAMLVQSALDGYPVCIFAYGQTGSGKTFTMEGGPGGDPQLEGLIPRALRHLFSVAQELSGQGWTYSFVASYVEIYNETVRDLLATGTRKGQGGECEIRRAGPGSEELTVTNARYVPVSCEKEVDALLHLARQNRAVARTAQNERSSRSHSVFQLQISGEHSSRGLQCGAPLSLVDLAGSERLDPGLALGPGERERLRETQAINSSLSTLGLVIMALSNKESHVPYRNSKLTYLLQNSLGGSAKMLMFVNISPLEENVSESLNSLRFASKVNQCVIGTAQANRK
substance,measurement,setting,value
myosin heavy chain 9 (MYH9) (from UniProt P35579 1-1960) (natural protein),BrdU cell proliferation of AA TNBC cells treated with CW069 + blebbistatin,[1],1.5 fold
same,"relative abundance of MYH9 in the nKIFC1 immunoprecipitate, fold over MDA-MB-231",[2],1.6 fold
same,"relative abundance of MYH9 in the nKIFC1 immunoprecipitate, fold over MDA-MB-231",[3],1.8 fold
